Experimental findings from patent US20060204974A1 are described below.

This test addresses rat angiotensin type 1a receptor (AT1aR) (rat) (UniProt P25095). The experiment in a line: cell-based or functional assay.
UniProt P25095, sequence (P25095 whole entry): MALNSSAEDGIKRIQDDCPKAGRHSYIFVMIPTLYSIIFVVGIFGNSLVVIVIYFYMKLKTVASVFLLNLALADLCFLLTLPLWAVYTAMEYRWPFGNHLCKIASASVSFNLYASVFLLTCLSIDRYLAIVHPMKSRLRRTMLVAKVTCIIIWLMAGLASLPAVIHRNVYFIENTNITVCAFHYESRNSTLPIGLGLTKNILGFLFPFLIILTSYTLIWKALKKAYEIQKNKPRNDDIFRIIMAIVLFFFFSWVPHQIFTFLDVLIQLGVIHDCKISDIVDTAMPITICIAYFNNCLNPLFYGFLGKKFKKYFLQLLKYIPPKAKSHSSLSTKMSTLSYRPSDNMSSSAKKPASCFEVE

“Angiotensin II (from UniProt P01019 25-476) (peptide)” came in with an Ang II (100 nM) stimulated inositol phosphate production, Ang II-basal (cpm), CHO cells stably expressing E1,2,3 of 260 cpm; an Ang II (100 nM) stimulated inositol phosphate production, Ang II-basal (cpm), CHO cells stably expressing E1,3 of 1320 cpm; an Ang II-induced IP production (cpm), 100 nM Ang II, CHO clones stably expressing QM of 1640 cpm; an Ang II-induced IP production (cpm), 100 nM Ang II, CHO clones stably expressing WT of 322 cpm. Also, the angiotensin II/basal inositol phosphate accumulation, 100 nM angiotensin II for 20 min, A10 cells transiently transfected with E2 plasmid (ratio (angiotensin II/basal)) was determined as 1.35 and the angiotensin II/basal inositol phosphate accumulation, 100 nM angiotensin II for 20 min, A10 cells transiently transfected with ΔE2 plasmid (ratio (angiotensin II/basal)) is 1.8.
